Residue numbers refer to the chain shown, from its start. In names and notes the source's numbering stands.

The text below walks through data of PMC7415566 (Structure (London, England : 1993), 2020).

Assay [1] has as its target T1, human FAM46C (residues 16-358), NTase domain (human, UniProt Q5VWP2 16-358).
T1 sequence (looked up): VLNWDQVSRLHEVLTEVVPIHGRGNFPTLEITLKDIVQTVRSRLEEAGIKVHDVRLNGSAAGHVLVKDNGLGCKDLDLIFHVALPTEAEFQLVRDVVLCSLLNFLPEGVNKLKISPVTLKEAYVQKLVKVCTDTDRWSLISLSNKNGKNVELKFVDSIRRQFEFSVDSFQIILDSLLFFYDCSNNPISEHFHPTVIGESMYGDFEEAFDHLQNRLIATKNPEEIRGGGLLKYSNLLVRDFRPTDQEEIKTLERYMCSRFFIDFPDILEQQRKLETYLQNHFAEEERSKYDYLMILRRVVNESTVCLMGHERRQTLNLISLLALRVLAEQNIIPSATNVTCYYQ
Nature of the assay: crystal structure.

The target in assay [2] is T2, FAM46C E166Q/F193D/F206D (residues 16-350) (human, UniProt Q5VWP2 16-350, E166Q | F193D | F206D).
T2 sequence (looked up): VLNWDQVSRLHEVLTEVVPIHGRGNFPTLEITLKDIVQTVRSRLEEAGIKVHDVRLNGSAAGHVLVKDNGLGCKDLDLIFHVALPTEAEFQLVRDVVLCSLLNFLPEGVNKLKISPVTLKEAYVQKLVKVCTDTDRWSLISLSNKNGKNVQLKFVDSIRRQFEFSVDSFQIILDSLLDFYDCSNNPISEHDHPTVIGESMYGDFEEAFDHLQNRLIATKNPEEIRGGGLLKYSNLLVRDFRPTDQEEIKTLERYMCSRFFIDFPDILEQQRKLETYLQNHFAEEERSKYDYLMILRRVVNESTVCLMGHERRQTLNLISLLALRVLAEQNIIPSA
The assay is described as follows: crystal structure.

The target of assay [3] is T3, GST-tagged FAM46C (residues 16-358) (human, UniProt Q5VWP2 16-358).
T3 sequence (looked up): T1 sequence (looked up)
The assay is described as follows: pull-down.

Assay [4] has as its target T4, GST-tagged FAM46D (residues 7-340) (human, UniProt Q8NEK8 7-340).
T4 sequence (looked up): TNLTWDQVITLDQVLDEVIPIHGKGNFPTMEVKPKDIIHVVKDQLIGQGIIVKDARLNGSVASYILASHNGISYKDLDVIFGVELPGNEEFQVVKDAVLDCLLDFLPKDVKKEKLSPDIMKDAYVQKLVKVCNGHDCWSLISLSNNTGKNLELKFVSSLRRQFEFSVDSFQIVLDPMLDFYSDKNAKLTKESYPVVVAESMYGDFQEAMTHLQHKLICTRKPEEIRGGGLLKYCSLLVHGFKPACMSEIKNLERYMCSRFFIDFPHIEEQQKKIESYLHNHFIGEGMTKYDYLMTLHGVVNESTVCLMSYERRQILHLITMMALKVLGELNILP
The assay is described as follows: pull-down.

B1: CPB1-2 of human PLK4 (residues 580-810) (domain or fragment, UniProt O00444 580-810, looked up)
chain: WGYQNRTLRSITSPLVAHRLKPIRQKTKKAVVSILDSEEVCVELVKEYASQEYVKEVLQISSDGNTITIYYPNGGRGFPLADRPPSPTDNISRYSFDNLPEKYWRKYQYASRFVQLVRSKSPKITYFTRYAKCILMENSPGADFEVWFYDGVKIHKTEDFIQVIEKTGKSYTLKSESEVNSLKEEIKMYMDHANEGHRICLALESIISEEERKTRSAPFFPIIIGRKPGST
On to B1, for which the binding result in assay [1], in assay [2], in assay [3] and in assay [4] was “binds” each time.

B2: CPB1-2 of human PLK4 (residues 580-810) N669R (domain or fragment, UniProt O00444 580-810, looked up)
chain: B1 chain with N90R
For B2, the binding result in assay [3] is on record as “binds”.
